Laboratory results: patent US20210292393A1 (published 2021)

Assays:
[1] = molecular target: T1, SARS-CoV-2 full length spike protein, V367F mutant (SARS-CoV-2, UniProt P0DTC2 14-1273); assay: flow cytometry, CHO cells expressing full-length spike V367F
T1 construct: also called SARS-CoV-2 V367F mutant

[2] = molecular target: SARS-CoV-2 full length spike protein, D614G mutant (SARS-CoV-2, UniProt P0DTC2 14-1273); assay: flow cytometry, CHO cells expressing full-length spike D614G
[3] = molecular target: T2, SARS-CoV-2 full length spike protein, V483A mutant (SARS-CoV-2, UniProt P0DTC2 14-1273)
[4] = molecular target: T2, SARS-CoV-2 full length spike protein, …; assay: flow cytometry, CHO cells expressing full-length spike V483A
[5] = molecular target: T3, SARS-CoV-2 full length spike protein, V483A mutant (SARS-CoV-2, UniProt P0DTC2 14-1273); assay: as above; remark: listed apart in the source
T3 construct: also called SARS-CoV-2 V483A mutant

[6] = molecular target: SARS-CoV-2 full length spike protein, D614G mutant, expressed on CHO cells (SARS-CoV-2, UniProt P0DTC2 14-1273); assay: flow cytometry on CHO cells expressing spike D614G
[7] = molecular target: T4, SARS-CoV-2 full length spike protein, V483A mutant, expressed on CHO cells (SARS-CoV-2, UniProt P0DTC2 14-1273)
[8] = molecular target: T5, SARS-CoV-2 full length spike protein, V367F mutant, expressed on CHO cells (SARS-CoV-2, UniProt P0DTC2 14-1273); assay: flow cytometry on CHO cells expressing spike V367F
T5 construct: also called SARS-CoV-2 V367F mutant

[9] = molecular target: T4, SARS-CoV-2 full length spike protein, …; assay: flow cytometry on CHO cells expressing spike V483A
[10] = molecular target: T6, SARS-CoV-2 full length spike protein, V367F mutant (SARS-CoV-2, UniProt P0DTC2 14-1273); assay: flow cytometry, CHO cells expressing full-length spike V367F; remark: listed apart in the source
T6 construct: also called SARS-CoV-2 V367F mutant

[11] = molecular target: T3, SARS-CoV-2 full length spike protein, …; remark: listed apart in the source
[12] = molecular target: T7, SARS-CoV-2 full length spike protein, D614G mutant (SARS-CoV-2, UniProt P0DTC2 14-1273); assay: flow cytometry, CHO cells expressing full-length spike D614G (printed D641G)
T7 construct: also called SARS-CoV-2 D641G mutant

[13] = molecular target: SARS-CoV-2 full length spike protein, D614G mutant (SARS-CoV-2, UniProt P0DTC2 14-1273)
[14] = molecular target: SARS-CoV-2 full length spike protein, V367F mutant (SARS-CoV-2, UniProt P0DTC2 14-1273)

B1: antibody 450 (antibody, V domains shown)
VH: EVQLVESGGGLVQPGGSLRLSCAASEFTFSSYWMSWVRQAPGKGLEWVANIKQDGSEKYYVDSVKGRFTISRDNAKNSLYLQMNSLRAEDTAVYYCARVGEYSGYDLFFDYWGQGTLVTVSS
VL: NFMLTQPHSVSESPGKTVTISYTGSSGSIASNYVQWYQQRPGSAPTTVIYEDNQRPSGVPDRFSGSIDSSSNSASLTISGLKTEDEADYYCQSYDSSNQGVFGGGTKLTVL
Does B1 bind [1]?
Result: no binding

Does B1 bind [2]?
Result: no binding

And the “median fluorescence fold over isotype control” value [3]?
The value was 1.27 fold over isotype.

Does B1 bind [4]?
Result: no binding

B2: antibody 290 (antibody, V domains shown)
VH: QVHLVQSGAEVKKPGASVKVSCAASGYTFNNYGVSWVRQAPGQGLEWMGWISASNGNTKYAQNLQGRVTMTTDTSTSTAYMELRSLRSDDTAVYYCARDLVGPTAPNYYYGMDVWGQGTAVTVSS
VL: QSVLTQPPSVSGAPGQRVTISCTGSSSSIGAGYDVHWYQQLPGTAPKLLIYANSNRPSGVPDRLSGSKSGTSASLAITGLQAEDEADYYCQSYDSSLSGYVFGTGTKVTVL
Does B2 bind [5]?
Result: no binding

B3: antibody 377 (antibody, V domains shown)
VH: EVQLVESGGGLVKPGGSLRLSCATSGFTFRTYSMNWVRQAPGKGLEWVSSITTSRNYIYYADSVRGRFTISGDNANNSLYLQMNSLRAEDTAVYYCARVRFVRDTRKPYYFDFWGQGTLVTVSS
VL: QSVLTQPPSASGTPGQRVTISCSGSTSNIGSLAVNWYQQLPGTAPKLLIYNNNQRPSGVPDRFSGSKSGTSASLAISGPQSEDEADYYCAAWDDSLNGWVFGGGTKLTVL
Does B3 bind [6]?
Result: no binding

What about the “median fluorescence fold over isotype control” value [7] of the same binder?
The value was 1.09 fold over isotype.

Does B3 bind [8]?
Result: no binding

Does B3 bind [9]?
Result: no binding

B4: antibody 296 (antibody, V domains shown)
VH: EVQLVESGGGLVQPGGSLRLSCAGSGFTLSNYWMTWVRQAPGKGLEWVANINQDASRKYYGDSVKGRFSVSRDNAKNSLYLQMNSLTAEDTGFYYCVREELPSTPGSTWGQGTLVTVSS
VL: QSALTQPASVSGSPGQSITISCTGTSSDIGGYNHVSWYQQHPGKAPKLMIYGVSNRPSGVSDRFSGSKSDNTASLTISGLQAEDEADYYCSSPTSRGNKVFGTGTKVTVL
Which results are given for B4?
binding result [10]: no binding; median fluorescence intensity, fold over isotype control [11]: 1.27 fold over isotype; binding result [12]: no binding

B5: antibody 585 (antibody, V domains shown)
VH: QVQLVESGGGVVQPGRSLRLSCAASGFTFATYAMHWVRQAPGKGLEWVALISHDGSNKHYADSVKGRFTISRDNSKKTLYLQMNSLRAEGTAIYYCARESLEAAAPPFDYWGQGTLVTVSS
VL: SYELTQPPSVSVSPGQTATIICSGDKLGEKYASWYQQKPGQSPALVIYQDRKRPSGIPERFSGSNSGNTATLTISGTQAMDEADYYCQAWDSSNSVVFGGGTKLTVP
What does the source list for B5?
median fluorescence intensity, fold over isotype control [13]: 7.49 fold over isotype; median fluorescence intensity, fold over isotype control [14]: 33 fold over isotype
